# Paper PMC4358367, “Structural basis of diverse membrane target recognitions by ankyrins” (eLife, 2014)
# Where no end group is shown, it is not given here.
# T1: AnkB_repeats site 1 mutant 'FF' (Phe131 and Phe164 to Gln) (human, UniProt Q01484 28-873, Phe131 substituted with Gln | Phe164 substituted with Gln)
# T1 sequence: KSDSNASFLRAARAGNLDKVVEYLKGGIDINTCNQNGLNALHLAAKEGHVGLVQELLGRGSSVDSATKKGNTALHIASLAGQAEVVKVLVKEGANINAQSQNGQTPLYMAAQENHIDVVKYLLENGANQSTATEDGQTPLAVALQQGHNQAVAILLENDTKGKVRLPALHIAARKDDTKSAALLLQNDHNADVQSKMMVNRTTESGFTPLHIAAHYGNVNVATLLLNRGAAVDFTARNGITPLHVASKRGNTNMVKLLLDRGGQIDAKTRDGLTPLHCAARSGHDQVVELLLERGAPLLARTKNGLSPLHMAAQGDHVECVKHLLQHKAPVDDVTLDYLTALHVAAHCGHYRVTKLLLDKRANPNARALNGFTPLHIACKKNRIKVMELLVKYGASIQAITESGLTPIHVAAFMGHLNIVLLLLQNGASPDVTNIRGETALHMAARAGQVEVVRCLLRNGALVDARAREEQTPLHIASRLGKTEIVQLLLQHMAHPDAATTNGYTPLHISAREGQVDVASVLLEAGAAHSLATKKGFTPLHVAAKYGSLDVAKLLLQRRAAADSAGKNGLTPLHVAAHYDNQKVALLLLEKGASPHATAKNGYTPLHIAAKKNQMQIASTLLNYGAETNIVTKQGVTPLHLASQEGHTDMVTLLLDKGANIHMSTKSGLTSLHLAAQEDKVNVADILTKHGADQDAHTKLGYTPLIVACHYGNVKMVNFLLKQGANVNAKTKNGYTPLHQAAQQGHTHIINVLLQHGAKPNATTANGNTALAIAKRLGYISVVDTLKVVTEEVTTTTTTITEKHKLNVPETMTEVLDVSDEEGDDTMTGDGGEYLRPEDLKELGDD
# B1: Cav1.3 peptide (mouse Cav1.3 residues 2134–2166), FITC-labeled (peptide, UniProt Q99246-4 2134-2166, looked up)
# peptide: ELQDFGPGYSDEEPDPGREEEDLADEMICITTL
# modifications: also: FITC label (position not given here)
# notes: voltage-gated calcium channel Cav1.3, mouse, residues 2134-2166; also called voltage-gated calcium channel Cav1.3 peptide; source: synthetic peptide (commercially synthesized)
# Target: T1, AnkB_repeats site 1 mutant 'FF' (Phe131 …)
# Test: FP
binder,measurement,value
B1,Kd,3.3 µM
